# Experimental data taken from patent publication US20220251562, “Anti-CD3 Aptamers for Use in Cell Targeting and Labeling” (Ixaka France, published 2022).
# Tests used:
# IgG1 Fc (counter target) [1] = molecular target: T1, IgG1 Fc (counter target) (Homo sapiens, UniProt P01857-1 P01857-1:100-330); test: SPR; no interaction observed; aptamer also NA for CD3; settings: tags: AcroBiosystems; chain copies: 2; label: 5'-biotin-TEG
# Protocol: (§1) Binding affinity measurements were performed using a BIAcore T200 instrument (GE Healthcare). To analyze interactions between aptamers and CD3 proteins, 1000 Resonance Units of biotinylated aptamers were immobilized on Series S Sensor chips SA (GE Healthcare) according to manufacturer's instructions (GE Healthcare). SELEX buffer was used as the running buffer. The interactions were measured in the “Single Kinetics Cycle” mode at a flow rate of 30 μl/min and by injecting different concentrations of human CD3 ε/γ, CD3 ε/δ, IgG1 Fc and mouse CD3 ε/δ (Sino Biological). The highest protein concentration used was 100 nM. Other concentrations were obtained by 3-fold dilution. All kinetic data of the interaction were evaluated using the BIAcore T200 evaluation software. Table 3 below provides a summary of KD values obtained from surface plasmon resonance measurements.
# (§2) Further, it was observed that compared to the aptamer CELTIC_1 (CD3-1 in Table 1), CELTIC_1s (CD3-1s) bound to the CD3 proteins more strongly. Table 4 below provides a summary of KD values obtained from another set of surface plasmon resonance measurements. It includes KD values of the first five aptamers with and without flanking regions.
# [2] = molecular target: T2, CD3 epsilon/delta heterodimer (Homo sapiens, UniProt P07766;P04234 P07766:23-126,P04234:22-105); test: SPR; NA; settings: tags: C-terminal human IgG1 Fc fusion, AcroBiosystems; chain copies: heterodimer 1:1 (inferred); label: 5'-biotin-TEG
# T2 sequence (P07766 23-126, stated change not applied, chain 1 of 2): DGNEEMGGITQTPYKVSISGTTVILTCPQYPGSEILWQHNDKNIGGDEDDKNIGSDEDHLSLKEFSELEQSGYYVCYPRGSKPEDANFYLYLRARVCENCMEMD
# T2 sequence (P04234 22-105, stated change not applied, chain 2 of 2): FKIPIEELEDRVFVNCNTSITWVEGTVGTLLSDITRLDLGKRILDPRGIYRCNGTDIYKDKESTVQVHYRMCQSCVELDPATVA
# Protocol: as §1, §2
# [3] = molecular target: T3, CD3 epsilon/gamma heterodimer (Homo sapiens, UniProt P07766;P09693 P07766:23-126,P09693:23-116); test: SPR; NA; settings: tags: C-terminal human IgG1 Fc fusion, AcroBiosystems; chain copies: heterodimer 1:1 (inferred); label: 5'-biotin-TEG
# T3 sequence (P07766 23-126, chain 1 of 2): as the sequence (P07766 23-126, stated change not applied, chain 1 of 2) above
# T3 sequence (P09693 23-116, chain 2 of 2): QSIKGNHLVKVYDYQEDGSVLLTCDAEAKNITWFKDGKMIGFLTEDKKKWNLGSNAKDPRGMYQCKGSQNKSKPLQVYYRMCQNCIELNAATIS
# Protocol: as §1, §2
# [4] = molecular target: T2, CD3 epsilon/delta heterodimer; test: SPR; same value in Table 3; settings: tags: C-terminal human IgG1 Fc fusion, AcroBiosystems; chain copies: heterodimer 1:1 (inferred); label: 5'-biotin-TEG
# Protocol: as §1, §2
# [5] = molecular target: T3, CD3 epsilon/gamma heterodimer; test: SPR; same value in Table 3; settings: tags: C-terminal human IgG1 Fc fusion, AcroBiosystems; chain copies: heterodimer 1:1 (inferred); label: 5'-biotin-TEG
# Protocol: as §1, §2
# [6] = molecular target: T3, CD3 epsilon/gamma heterodimer; test: SPR; steady state; kinetic 104 pM (Table 8); settings: tags: C-terminal human IgG1 Fc fusion, AcroBiosystems; chain copies: heterodimer 1:1 (inferred); label: biotin; G4 predicted
# Protocol: (§3) Binding affinity measurements with the most interesting anti-CD3 aptamers derived from the core sequence were performed using a BIAcore T200 instrument (GE Healthcare) as already described in Example 4. To analyze interactions between aptamers and CD3 proteins, biotinylated aptamers were immobilized at a lower density than in Example 4 (100-500 RU) on Series S Sensor chips SA (GE Healthcare) according to manufacturer's instructions (GE Healthcare). Mouse and Cynomolgus CD3 ε/δ were purchased from AcroBiosystems. For human proteins, the highest concentration used was 100 nM and 1 μM for mouse and cynomolgus antigens. Other concentrations were obtained by 3-fold dilutions.
# (§4) Table 9 below provides a summary of KD values obtained from surface plasmon resonance measurements performed with human CD3 ε/γ and mouse and cynomolgus CD3 ε/δ. […] In these conditions, 3′-3′ deoxy-thymidine-modified versions of the latest four aptamers performed equally well. All these sequenced-optimized aptamers were able to bind the murine and cynomolgus CD3 ε/δ isoforms confirming the cross-specificity of the CD3 aptamers already observed in Examples 3 and 5.
# [7] = molecular target: T2, CD3 epsilon/delta heterodimer; test: SPR; kinetic; settings: tags: C-terminal human IgG1 Fc fusion, AcroBiosystems; chain copies: heterodimer 1:1 (inferred); label: biotin; G4 predicted
# Protocol: as §3
# (§5) Table 8 below provides a summary of KD values obtained from surface plasmon resonance measurements. […] Variants of the core sequence identified in cell binding assays (CELTIC_core_12, CELTIC_core_24, CELTIC_core_29, CELTIC_core_40 and CELTIC_core_42) were all confirmed to have better affinities than the unmodified aptamer with human CD3 ε/γ. As already observed in Example 4, the affinities were in general slightly lower with CD3 ε/δ which is a consequence of the SELEX strategy that included more rounds on the CD3 ε/γ isoform. None of these sequences did bind to the Fc region of human IgG1.
# [8] = molecular target: T2, CD3 epsilon/delta heterodimer; test: SPR; steady state; kinetic 3.7 nM (Table 6); settings: tags: C-terminal human IgG1 Fc fusion, AcroBiosystems; chain copies: heterodimer 1:1 (inferred); label: 5'-biotin-TEG
# Protocol: as §1
# IgG1 Fc (counter target) [9] = molecular target: T1, IgG1 Fc (counter target); test: SPR; no interaction observed; settings: tags: AcroBiosystems; chain copies: 2; label: 5'-biotin-TEG
# Protocol: as §1
# [10] = molecular target: T3, CD3 epsilon/gamma heterodimer; test: SPR; steady state; kinetic 3.8 nM (Table 6); settings: tags: C-terminal human IgG1 Fc fusion, AcroBiosystems; chain copies: heterodimer 1:1 (inferred); label: 5'-biotin-TEG
# Protocol: as §1
# [11] = molecular target: T3, CD3 epsilon/gamma heterodimer; test: SPR; steady state; kinetic 0.2 pM (Table 8); settings: tags: C-terminal human IgG1 Fc fusion, AcroBiosystems; chain copies: heterodimer 1:1 (inferred); label: biotin; G4 predicted
# Protocol: as §3, §4
# IgG1 Fc (counter target) [12] = molecular target: T1, IgG1 Fc (counter target); test: SPR; NA; settings: tags: AcroBiosystems; chain copies: 2; label: biotin; G4 predicted
# Protocol: as §3, §5
# [13] = molecular target: T2, CD3 epsilon/delta heterodimer; test: SPR; steady state; kinetic fit suboptimal; settings: tags: C-terminal human IgG1 Fc fusion, AcroBiosystems; chain copies: heterodimer 1:1 (inferred); label: 5'-biotin-TEG
# Protocol: as §1
# [14] = molecular target: T3, CD3 epsilon/gamma heterodimer; test: SPR; steady state; kinetic fit suboptimal; settings: tags: C-terminal human IgG1 Fc fusion, AcroBiosystems; chain copies: heterodimer 1:1 (inferred); label: 5'-biotin-TEG
# Protocol: as §1
# [15] = molecular target: T3, CD3 epsilon/gamma heterodimer; test: SPR; steady state; kinetic 2.3 nM (Table 6); settings: tags: C-terminal human IgG1 Fc fusion, AcroBiosystems; chain copies: heterodimer 1:1 (inferred); label: 5'-biotin-TEG
# Protocol: as §1
# [16] = molecular target: T2, CD3 epsilon/delta heterodimer; test: SPR; steady state; kinetic 2.7 nM (Table 6); settings: tags: C-terminal human IgG1 Fc fusion, AcroBiosystems; chain copies: heterodimer 1:1 (inferred); label: 5'-biotin-TEG
# Protocol: as §1
# [17] = molecular target: T2, CD3 epsilon/delta heterodimer; test: SPR; steady state; kinetic 3.4 nM (Table 6); settings: tags: C-terminal human IgG1 Fc fusion, AcroBiosystems; chain copies: heterodimer 1:1 (inferred); label: 5'-biotin-TEG
# Protocol: as §1
# [18] = molecular target: T3, CD3 epsilon/gamma heterodimer; test: SPR; steady state; kinetic 4.1 nM (Table 6); settings: tags: C-terminal human IgG1 Fc fusion, AcroBiosystems; chain copies: heterodimer 1:1 (inferred); label: 5'-biotin-TEG
# Protocol: as §1
# [19] = molecular target: T2, CD3 epsilon/delta heterodimer; test: SPR; steady state; kinetic 23.3 nM (Table 6); settings: tags: C-terminal human IgG1 Fc fusion, AcroBiosystems; chain copies: heterodimer 1:1 (inferred); label: 5'-biotin-TEG
# Protocol: as §1
# [20] = molecular target: T2, CD3 epsilon/delta heterodimer; test: SPR; steady state; kinetic 41.1 nM (Table 6); settings: tags: C-terminal human IgG1 Fc fusion, AcroBiosystems; chain copies: heterodimer 1:1 (inferred); label: 5'-biotin-TEG
# Protocol: as §1
# [21] = molecular target: T3, CD3 epsilon/gamma heterodimer; test: SPR; steady state; 43.6 nM (Table 3); kinetic 2.8 nM (Table 6); settings: tags: C-terminal human IgG1 Fc fusion, AcroBiosystems; chain copies: heterodimer 1:1 (inferred); label: 5'-biotin-TEG
# Protocol: as §1
# [22] = molecular target: T2, CD3 epsilon/delta heterodimer; test: SPR; steady state; 62.2 nM (Table 3); kinetic 3.4 nM (Table 6); settings: tags: C-terminal human IgG1 Fc fusion, AcroBiosystems; chain copies: heterodimer 1:1 (inferred); label: 5'-biotin-TEG
# Protocol: as §1
# [23] = molecular target: T3, CD3 epsilon/gamma heterodimer; test: SPR; steady state; kinetic 9.5 pM (Table 6), 304 pM (Table 8); 99 nM steady state (Table 9); settings: tags: C-terminal human IgG1 Fc fusion, AcroBiosystems; chain copies: heterodimer 1:1 (inferred); label: 5'-biotin-TEG
# [24] = molecular target: T2, CD3 epsilon/delta heterodimer; test: SPR; steady state; kinetic 8.2 nM (Table 6), 900 pM (Table 8); settings: tags: C-terminal human IgG1 Fc fusion, AcroBiosystems; chain copies: heterodimer 1:1 (inferred); label: 5'-biotin-TEG
# Protocol: as §1
# [25] = molecular target: T2, CD3 epsilon/delta heterodimer; test: SPR; steady state; kinetic 3.2 nM (Table 6); settings: tags: C-terminal human IgG1 Fc fusion, AcroBiosystems; chain copies: heterodimer 1:1 (inferred); label: 5'-biotin-TEG
# Protocol: as §1
# [26] = molecular target: T3, CD3 epsilon/gamma heterodimer; test: SPR; steady state; kinetic 3.9 nM (Table 6); settings: tags: C-terminal human IgG1 Fc fusion, AcroBiosystems; chain copies: heterodimer 1:1 (inferred); label: 5'-biotin-TEG
# Protocol: as §1
binder,measurement,setting,value
CELTIC_2 (ssDNA) DNA: TAGGGAAGAGAAGGACATATGATGAGGGGTTTGGCATCGGGCCTGGCGCCATTCAAGCTATGCTTGACTAGTACATGACCACTTGA,binding result,IgG1 Fc (counter target) [1],no binding
same,binding result,[2],no binding
same,binding result,[3],no binding
CELTIC_3 (ssDNA) DNA: TAGGGAAGAGAAGGACATATGATGCGTAAGGGTTTGGCAGCGGGCCTGGCGGAACGCGTGTATTTGACTAGTACATGACCACTTGA,Kd,[4],86.5 nM
same,Kd,[5],65.4 nM
"GGGTTTGGCATCGGGTCTGGC (ssDNA, 5'-HEG; 3'-3' dT) [CELTIC_core_40t]",Kd,[6],156 nM
same,Kd,[7],0.01 nM
GCATCGAAATGGGGTTGGCACCGGGCCTGGCGAATTGGAT (ssDNA) [CELTIC_9s],Kd,[8],60.5 nM
same,binding result,IgG1 Fc (counter target) [9],no binding
same,Kd,[10],47.3 nM
"GGGTTTGGCATCGGGTCTGGC (ssDNA, 5'-HEG) [CELTIC_core_40]",Kd,[11],129 nM
same,binding result,IgG1 Fc (counter target) [12],no binding
same,Kd,[7],0.0052 nM
AAGGGATTGGCGTCGGGCCTGGCGTAAGGAGGCTATGCTC (ssDNA) [CELTIC_6s],binding result,IgG1 Fc (counter target) [9],no binding
same,Kd,[13],168 nM
same,Kd,[14],287 nM
CELTIC_1 (ssDNA) DNA: TAGGGAAGAGAAGGACATATGATCCGGGTGGGGGTTTGGCACCGGGCCTGGCGCAGGGATTCGTTGACTAGTACATGACCACTTGA,binding result,IgG1 Fc (counter target) [1],no binding
same,binding result,[2],no binding
same,binding result,[3],no binding
CGACCACAGGGGTTTGGCTTCGGGACTGGCGGTGGGCACT (ssDNA) [CELTIC_22s (printed CELTIC_CD3_22)],Kd,[15],162 nM
same,Kd,[16],164 nM
GGAGTGGAGTATTCCGGGTTTGGCATCGGGCCTGGCGAAG (ssDNA) [CELTIC_4s],Kd,[17],144 nM
same,Kd,[18],117 nM
same,binding result,IgG1 Fc (counter target) [9],no binding
GGTCGGGTGCTACTGAGCGATTGGCTTTCCGGACTGGGGA (ssDNA) [CELTIC_21s],Kd,[19],405 nM
same,binding result,IgG1 Fc (counter target) [9],no binding
same,Kd,[14],155 nM
GCGTAAGGGTTTGGCAGCGGGCCTGGCGGAACGCGTGTAT (ssDNA) [CELTIC_3s],Kd,[20],409 nM
same,binding result,IgG1 Fc (counter target) [9],no binding
same,Kd,[14],156 nM
CGGCAGGGGTTTGGCTCCGGGTCTGGCGAACTGGCTGAGA (ssDNA) [CELTIC_5s],binding result,IgG1 Fc (counter target) [9],no binding
same,Kd,[13],120 nM
same,Kd,[14],182 nM
CELTIC_21 (ssDNA) DNA: TAGGGAAGAGAAGGACATATGATGGTCGGGTGCTACTGAGCGATTGGCTTTCCGGACTGGGGATTGACTAGTACATGACCACTTGA,Kd,[21],56.4 nM
same,Kd,[22],49.8 nM
TACCGCGGGGATTGGCTCCGGGCCTGGCGTCGTAATCTGA (ssDNA) [CELTIC_19s],Kd,[23],104 nM
same,binding result,IgG1 Fc (counter target) [9],no binding
same,Kd,[24],150 nM
GATGGAGGGTTTGGCGGTGGGCCTGGCAAGTTATCTCATA (ssDNA) [CELTIC_11s],Kd,[25],138 nM
same,Kd,[26],94 nM
same,binding result,IgG1 Fc (counter target) [9],no binding
